# Source: patent US11612667B2, “Enhanced in vivo targeting of radiolabelled peptides with the means of enzyme inhibitors” (Advanced Accelerator Applications USA, Inc., priority 2011, dated 2023)
# Non-standard residues stand in square brackets, D forms with d. Residues, ends and D or L forms follow the SMILES beside them. *: point of attachment. DOTA = O=C(O)CN1CCN(CC(=O)O)CCN(CC(=O)*)CCN(CC(=O)O)CC1; Nle = CCCC[C@H](N)C(=O)O; X1 = NCCNCC(CNCCN)C(=O)*; AEEA = NCCOCCOCC(=O)O; βAla = NCCC(=O)O; For = O=C*
# How the values were obtained:
# [1] = design: species or system Swiss albino mice; settings: mouse, in vivo, 5 min
# Procedure: Whole blood was collected 5 min postinjection (pi), blood cells were removed and major proteins were precipitated and then the supernatant was analyzed by RP-HPLC coupled to a gamma detector.
# Alternatively, the dual NEP and ACE inhibitor racecadotril (race; 2.5 mg) was ip injected 45-60 min prior to radioligand injection and the same procedure was followed as described above.
# To test the in vivo stability, ^111In-DOTA-MG11 was injected in the tail vein of Swiss albino mice and 5 min afterwards blood was collected, blood cells were removed and major proteins were precipitated and then the supernatant was analyzed by RP-HPLC coupled to a gamma detector. As shown in the radiochromatogram of FIG. 3A, the major part of ^111In-DOTA-MG11 was consumed during this period (<5% intact peptide still detected), in agreement with previous reports. Further, ^111In-DOTA-MG11 was co-injected together with PA or injected 1 h after ip injection of race (2.5 mg) in more mice and the same protocol was followed as above. Amazingly, the percentage of ^111In-DOTA-MG11 found intact in the blood of the PA-treated mice was raised from <5% to 75% and in the race-pretreated mice to 73%.
# For ex vivo blood analysis, [^99mTc]Demotensin 6 was injected in the tail vein of Swiss albino mice and blood collected 5 min thereafter was analyzed as previously described. The effect of PA on stability was studied by co-injection of PA along with [^99mTc]Demotensin 6. Furthermore, a PA dose study was performed with the PA injected dose ranging from 300 μg down to 0.03 μg and results are summarized in FIG. 4A.
# Additional groups of radiopeptides with relevance for nuclear medicine applications have been studied for their in vivo stability. Radiopeptides were injected in the tail vein of healthy mice, either alone, or with a NEP inhibitor (PA—300 μg), or with a NEP (PA—300 μg) and an ACE (Lis—300 μg) inhibitor mixture; alternatively, another NEP inhibitor prodrug (race—2.5 mg) was ip injected in the animals ˜45 min prior to radioligand injection. Blood was collected 5 min afterwards, and analyzed by RP-HPLC after suitable preparation, as previously described.
# [2] = tested on: human prostate adenocarcinoma PC-3 xenografts (GRPR+); design: species or system SCID mice; settings: mouse, in vivo; for uptake in PC-3 tumor: SCID, 4 h
# Procedure: FIG. 6C: Biodistribution of [^99mTc]SAR-NC1 in SCID mice bearing human prostate adenocarcinoma PC-3 xenografts (GRPR^+) at 4 h pi.
# In FIG. 6B and FIG. 7B, the biodistribution of [^99mTc]SAR-NC1 and [^99mTc]SAR-NC6 in SCID mice bearing human prostate adenocarcinoma PC-3 xenografts (GRPR^+) at 4 h respectively, after injection of the radioligand alone or with co-injection of PA (300 μg) are shown.
# It is interesting to note that with co-injection of the blocker and PA tumor values were minimal (0.69±0.03% ID/g) showing that PA provoked a GRPR-mediated increase in tumor uptake.
# The effect of PA-induced stabilization of [^99mTc]Demobesin 1 on tumor uptake is illustrated in FIG. 10B, showing the biodistribution at 4 h pi after injection of [^99mTc]Demobesin 1 in SCID mice bearing human PC-3 xenografts (GRPR^+) (control), or with PA (300 μg).
# [3] = mouse; cited from earlier work
# [4] = tested on: WiDr tumors (hNTS1+); experiment: Biodistribution / tumor uptake in SCID mice bearing WiDr tumors (hNTS1+); settings: 4 h pi
# Procedure: FIG. 4H: Biodistribution of [^99mTc]Demotensin 6 in SCID mice bearing WiDr tumors (hNTS1^+) at 4 h pi. Bars represent average uptake as mean % injected dose per gram (% ID/g) of at least 4 animals with standard deviation (control at 4 h 2nd bars); three additional groups of animals received either excess NT(1-13) and PA (100 μg blocker and 300 μg PA—first bars), or PA (300 μg PA—3rd bars) or PA and Lis (300 μg PA+250 μg Lis—4th bars). Bl=blood, Li=liver, He=heart, Ki=kidneys, St=stomach, In=intestines, Sp=spleen, Mu=muscle, Lu=lungs, Pa=pancreas, Fe=femur and Tu=WiDr tumor.
# FIG. 5H: Biodistribution of [^99mTc]Demotensin 1 in SCID mice bearing WiDr tumors (hNTS1+) at 4 h pi. Bars represent average uptake as mean % injected dose per gram (% ID/g) of at least 4 animals with standard deviation (control at 4 h 2nd bars); three additional groups of animals received either excess NT and PA (100 μg and 300 μg PA, respectively—first bars), or PA (300 μg PA—3rd bars) or PA and Lis (300 μg PA+300 μg Lis—4th bars). Bl=blood, Li=liver, He=heart, Ki=kidneys, St=stomach, In=intestines, Sp=spleen, Mu=muscle, Lu=lungs, Pa=pancreas, Fe=femur and Tu=WiDr tumor.
# In FIG. 4B the effects of such regimens on SCID mice bearing the human colon adenocarcinoma WiDr tumor (a hNTS1R^+ tumor) on enhancing in vivo tumor targeting are presented.
# In FIG. 5B the effects of above regimens on SCID mice bearing WiDr tumors (hNTS1R^+) on enhancing in vivo tumor targeting are shown.
SMILES,percentage of parent peptide remaining intact [1] [%],uptake in PC-3 tumor [2] [% ID/g],other results
"CCCC[C@H](NC=O)C(=O)N[C@@H](CC(C)C)C(=O)N[C@@H](Cc1ccccc1)C(=O)N[C@@H](CCCC)C(=O)N[C@@H](Cc1ccc(O)cc1)C(=O)N[C@@H](CCCCNC(=O)CN1CCN(CC(=O)O)CCN(CC(=O)O)CCN(CC(=O)O)CC1)C(=O)O [[111In] CTP-1, For-Nle-Leu-Phe-Nle-Tyr-Lys(DOTA)-OH, metal not drawn] (For-[Nle]LF[Nle]YK(DOTA)-OH)",2,–,–
"CCCC[C@H](NC(=O)[C@H](CO)NC(=O)[C@H](Cc1ccc(O)cc1)NC(=O)[C@H](CO)NC(=O)CN1CCN(CC(=O)O)CCN(CC(=O)O)CCN(CC(=O)O)CC1)C(=O)N[C@@H](CCC(=O)O)C(=O)N[C@@H](Cc1c[nH]cn1)C(=O)N[C@@H](Cc1ccccc1)C(=O)N[C@@H](CCCNC(=N)N)C(=O)N[C@@H](Cc1c[nH]c2ccccc12)C(=O)NCC(=O)N[C@@H](CCCCN)C(=O)N1CCC[C@H]1C(=O)N[C@H](C(N)=O)C(C)C [[111In]MSH-1, metal not drawn]",52,–,–
"CCCC[C@H](NC(=O)[C@H](CO)NC(=O)[C@H](Cc1ccc(O)cc1)NC(=O)[C@H](CO)NC(=O)CN1CCN(CC(=O)O)CCN(CC(=O)O)CCN(CC(=O)O)CC1)C(=O)N[C@@H](CCC(=O)O)C(=O)N[C@@H](Cc1cnc[nH]1)C(=O)N[C@H](Cc1ccccc1)C(=O)N[C@@H](CCCN=C(N)N)C(=O)N[C@@H](Cc1c[nH]c2ccccc12)C(=O)NCC(=O)N[C@@H](CCCCN)C(=O)N1CCC[C@H]1C(=O)N[C@H](C(N)=O)C(C)C [[111In]MSH-2, (DOTA)Ser-Tyr-Ser-Nle-Glu-His-DPhe-Arg-Trp-Gly-Lys-Pro-Val-NH2, metal not drawn]",77,–,–
"CSCC[C@H](NC(=O)[C@H](CC(C)C)NC(=O)CNC(=O)[C@H](Cc1ccccc1)NC(=O)[C@H](Cc1ccccc1)NC(=O)[C@H](CCC(N)=O)NC(=O)[C@H](CCC(N)=O)NC(=O)[C@@H]1CCCN1C(=O)[C@H](CCCCN)NC(=O)[C@@H]1CCCN1C(=O)[C@H](CCCNC(=N)N)NC(=O)CN1CCN(CC(=O)O)CCN(CC(=O)O)CCN(CC(=O)O)CC1)C(N)=O [[111In]SP-1, metal not drawn]",7,–,–
"CC(C)C[C@H](NC(=O)CNC(=O)[C@H](Cc1ccccc1)NC(=O)[C@H](Cc1ccccc1)NC(=O)[C@H](CCC(N)=O)NC(=O)[C@H](CCC(N)=O)NC(=O)[C@@H]1CCCN1C(=O)[C@H](CCCCN)NC(=O)[C@@H]1CCCN1C(=O)[C@H](CCCNC(=N)N)NC(=O)CN1CCN(CC(=O)O)CCN(CC(=O)O)CCN(CC(=O)O)CC1)C(=O)N[C@@H](CCS(C)(=O)=O)C(N)=O [[111In]SP-2, metal not drawn]",24,–,–
"CC(C)C[C@H](NC(=O)CN(C)C(=O)[C@H](Cc1ccccc1)NC(=O)[C@H](Cc1ccccc1)NC(=O)[C@H](CCC(N)=O)NC(=O)[C@H](CCC(N)=O)NC(=O)[C@@H]1CCCN1C(=O)[C@H](CCCCN)NC(=O)[C@@H]1CCCN1C(=O)[C@H](CCCNC(=N)N)NC(=O)CN1CCN(CC(=O)O)CCN(CC(=O)O)CCN(CC(=O)O)CC1)C(=O)N[C@@H](CCS(C)(=O)=O)C(N)=O [[111In]SP-3, metal not drawn]",51,–,–
"CCNC(=O)[C@H](CC(C)C)NC(=O)[C@H](Cc1c[nH]cn1)NC(=O)CNC(=O)[C@@H](NC(=O)[C@H](C)NC(=O)[C@H](Cc1c[nH]c2ccccc12)NC(=O)[C@H](CCC(N)=O)NC(=O)[C@@H](Cc1ccccc1)NC(=O)COCC(=O)Nc1ccc(CC(CNCCN)CNCCN)cc1)C(C)C [[^99mTc]Demobesin 1, metal not drawn]",–,12.73±0.93,in vitro stability in plasma [3]: high in vitro stability
"CCCC[C@H](NC(=O)[C@H](CC(C)C)NC(=O)[C@H](Cc1c[nH]cn1)NC(=O)CNC(=O)[C@@H](NC(=O)[C@H](C)NC(=O)[C@H](Cc1c[nH]c2ccccc12)NC(=O)[C@H](CCC(N)=O)NC(=O)[C@H](CC(N)=O)NC(=O)CNC(=O)[C@H](Cc1ccc(O)cc1)NC(=O)[C@H](CCCN=C(N)N)NC(=O)[C@H](CCC(N)=O)NC(=O)[C@@H]1CCCN1C(=O)C(CNCCN)CNCCN)C(C)C)C(N)=O [[^99mTc]Demobesin 4, metal not drawn]",26,11.26±1.81,in vitro stability in plasma [3]: very high
"CC[C@H](C)[C@H](NC(=O)[C@H](Cc1ccc(O)cc1)NC(=O)[C@@H]1CCCN1C(=O)[C@H](CCCN=C(N)N)NC(=O)[C@H](CCCN=C(N)N)NC(=O)CNC(=O)C(CNCCN)CNCCN)C(=O)N[C@@H](CC(C)C)C(=O)O [[^99mTc]Demotensin 1, ^99mTc-N4-Gly-Arg-Arg-Pro-Tyr-Ile-Leu-OH, metal not drawn] (X1-GRRPYIL-OH)",–,–,"uptake in WiDr tumor ([4]; PA 300 μg): 4.58±0.47 % ID/g; uptake in WiDr tumor ([4]; PA 300 μg + Lis (250 μg for Demotensin 6, 300 μg for Demotensin 1)): 7.71±1.19 % ID/g; uptake in WiDr tumor, blockade ([4]; excess NT 100 μg blocker + 300 μg PA): 0.23±0.09 % ID/g; uptake in WiDr tumor ([4]; non-treated controls): 1.20±0.21 % ID/g"
"CSCC[C@H](NC(=O)[C@H](CC(C)C)NC(=O)[C@H](Cc1c[nH]cn1)NC(=O)CNC(=O)[C@@H](NC(=O)[C@H](C)NC(=O)[C@H](Cc1c[nH]c2ccccc12)NC(=O)[C@H](Cc1c[nH]cn1)NC(=O)[C@H](CC(N)=O)NC(=O)CNC(=O)C(CNCCN)CNCCN)C(C)C)C(N)=O [[^99mTc]SAR-NC1, metal not drawn]",30,6.51±1.91,–
"CC(C)C[C@H](NC(=O)C[C@H](O)[C@H](CC(C)C)NC(=O)[C@H](Cc1c[nH]cn1)NC(=O)CNC(=O)[C@@H](NC(=O)[C@H](C)NC(=O)[C@H](Cc1c[nH]c2ccccc12)NC(=O)[C@H](CCC(N)=O)NC(=O)[C@@H](Cc1ccccc1)NC(=O)CCNC(=O)CCNC(=O)CN1CCN(CC(=O)O)CCN(CC(=O)O)CCN(CC(=O)O)CC1)C(C)C)C(N)=O [[^111In]JMV4168, [^111In]DOTA-βAla-βAla-DPhe-Gln-Trp-Ala-Val-Gly-His-Sta-Leu-NH2, metal not drawn]",–,10.22±2.40,pancreas uptake [2]: remained very low
"CCCC[C@H](NC(=O)[C@H](Cc1ccccc1)NC(=O)[C@H](Cc1c[nH]cn1)NC(=O)CCNC(=O)[C@@H](NC(=O)[C@H](C)NC(=O)[C@H](Cc1c[nH]c2ccccc12)NC(=O)[C@H](CCC(N)=O)NC(=O)[C@@H](Cc1ccc(O)cc1)NC(=O)COCCOCCNC(=O)CN1CCN(CC(=O)O)CCN(CC(=O)O)CCN(CC(=O)O)CC1)C(C)C)C(N)=O [[^111In]PanSarbesin 1, ^111In-DOTA-PEG2-DTyr-Gln-Trp-Ala-Val-βAla-His-Phe-Nle-NH2, metal not drawn] ({DOTA-AEEA}-[dY]QWAV[βAla]HF[Nle]-NH2)",13,3.75±0.73,–
